Values of other authors in article PMC5681435, “Differential Regulation of G1 CDK Complexes by the Hsp90-Cdc37 Chaperone System” (Cell Reports, 2017).

Biological target: B-Raf V600E kinase domain (Homo sapiens) (UniProt P15056)
Experiment: ITC
Details: cited from earlier work

Sequence of B-Raf V600E kinase domain (Homo sapiens) (P15056 457-717 V600E): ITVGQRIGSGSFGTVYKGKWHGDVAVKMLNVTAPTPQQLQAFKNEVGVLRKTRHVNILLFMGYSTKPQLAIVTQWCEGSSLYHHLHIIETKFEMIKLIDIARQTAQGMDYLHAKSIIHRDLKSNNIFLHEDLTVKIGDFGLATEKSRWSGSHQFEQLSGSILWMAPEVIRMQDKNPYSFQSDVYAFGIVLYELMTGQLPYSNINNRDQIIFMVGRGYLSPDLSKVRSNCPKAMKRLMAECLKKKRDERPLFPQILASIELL
Sequence of Cdc37 (Q16543 2-378): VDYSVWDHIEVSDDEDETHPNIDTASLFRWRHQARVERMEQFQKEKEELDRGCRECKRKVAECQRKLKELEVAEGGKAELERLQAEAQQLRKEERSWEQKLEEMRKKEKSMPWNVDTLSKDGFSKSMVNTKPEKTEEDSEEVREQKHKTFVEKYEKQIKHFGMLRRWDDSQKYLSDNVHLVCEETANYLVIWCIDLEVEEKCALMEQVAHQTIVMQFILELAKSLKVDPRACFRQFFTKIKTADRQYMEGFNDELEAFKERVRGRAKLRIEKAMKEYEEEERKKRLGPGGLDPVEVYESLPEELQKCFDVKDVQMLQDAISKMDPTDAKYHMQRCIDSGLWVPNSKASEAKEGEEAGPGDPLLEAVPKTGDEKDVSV

## Cdc37 (from UniProt Q16543)
  Kd: 200 nM
